Assays:
[1] = molecular target: broadly neutralizing anti-E2 murine monoclonal antibody AP33 (IgG); test: competition ELISA; settings: peptide 10 µg/ml (highest concentration); binding to E2661 read; parent: est. 5; read off a plot
[2] = molecular target: AP33 light chain mutant N92 (human-mouse chimeric AP33, residue changed to alanine) (mouse | human); test: ELISA
[3] = molecular target: AP33 light chain mutant V93 (human-mouse chimeric AP33, residue changed to alanine) (mouse | human); test: ELISA
[4] = molecular target: AP33 light chain mutant D94 (human-mouse chimeric AP33, residue changed to alanine) (mouse | human); test: ELISA
[5] = molecular target: AP33 heavy chain mutant T97 (human-mouse chimeric AP33, residue changed to alanine) (mouse | human); test: ELISA
[6] = molecular target: AP33 light chain mutant N30 (human-mouse chimeric AP33, residue changed to alanine) (mouse | human); test: ELISA
[7] = molecular target: AP33 heavy chain mutant I95 (human-mouse chimeric AP33, residue changed to alanine) (mouse | human); test: ELISA
[8] = molecular target: AP33 light chain mutant Y28 (human-mouse chimeric AP33, residue changed to alanine) (mouse | human); test: ELISA
[9] = molecular target: AP33 heavy chain mutant Y53 (human-mouse chimeric AP33, residue changed to alanine) (mouse | human); test: ELISA
MAb ALP98 = test: ELISA; settings: parent: est. 100; read off a plot
[10] = molecular target: soluble HCV E2 that lacks the transmembrane domain (E2_(661)), monomeric (Hepatitis C virus genotype 1a strain …, UniProt P27958); test: SPR; settings: both partners purified

In the case of E2 412-423 WT peptide W420R, the other: E2 Binding (%) remaining after peptide competition [1] is reported as 86%.

“E2 (as tested on wild type and mutant AP33 in Table 1) (from UniProt P27958 384-746) (natural protein)” showed a Relative strength of binding (%) (% of binding to WT AP33) [2] of 60, a Relative strength of binding (%) (% of binding to WT AP33) [3] of 79 and a Relative strength of binding (%) (% of binding to WT AP33) [4] of 74. The Relative strength of binding (%) (% of binding to WT AP33) [5] was 101, the Relative strength of binding (%) (% of binding to WT AP33) [6] was 89 and the Relative strength of binding (%) (% of binding to WT AP33) [7] was 10. It also gave a Relative strength of binding (%) (% of binding to WT AP33) [8] of 112 and a Relative strength of binding (%) (% of binding to WT AP33) [9] of 100.

Molecule E2 WT I414A has a percent of parent (MAb ALP98) of 96%.

Work on E2 WT S424A yielded a percent of parent (MAb ALP98) of 96%.

B1: broadly neutralizing anti-E2 murine monoclonal antibody AP33 (IgG) (antibody, V domains shown)
VH: EVQLQESGPSLVKPSQTLSLTCSVTGDSITSGYWNWIRKFPGNKLEYMGYISYSGSTYYNLSLRSRISITRDTSKNQYYLQLNSVTTEDTATYYCALITTTTYAMDYWGQGTSVTVSS
VL: NIVLTQSPVSLAVSLGQRATISCRASESVDGYGNSFLHWFQQKPGQPPKLLIYLASNLNSGVPARFSGSGSRTDFTLTIDPVEADDAATYYCQQNNVDPWTFGGGTKLEIK
In the case of B1, the Kd [10] is reported as 3.4 nM, the koff [10] is reported as 0.000542 s⁻¹ and the kon [10] is reported as 160000 M⁻¹ s⁻¹.
